Data from paper PMC7969950.
Substitutions are numbered along the chain they refer to. In names and notes the source's numbering stands.

B1: wild-type Flag-CTNNA1 (in MCF10A cells), P35221 Y419A; V422A; L897A; F900A (protein)
chain: MTAVHAGNINFKWDPKSLEIRTLAVERLLEPLVTQVTTLVNTNSKGPSNKKRGRSKKAHVLAASVEQATENFLEKGDKIAKESQFLKEELVAAVEDVRKQGDLMKAAAGEFADDPCSSVKRGNMVRAARALLSAVTRLLILADMADVYKLLVQLKVVEDGILKLRNAGNEQDLGIQYKALKPEVDKLNIMAAKRQQELKDVGHRDQMAAARGILQKNVPILYTASQACLQHPDVAAYKANRDLIYKQLQQAVTGISNAAQATASDDASQHQGGGGGELAYALNNFDKQIIVDPLSFSEERFRPSLEERLESIISGAALMADSSCTRDDRRERIVAECNAVRQALQDLLSEYMGNAGRKERSDALNSAIDKMTKKTRDLRRQLRKAVMDHVSDSFLETNVPLLVLIEAAKNGNEKEVKEAAQAFREHANKLIEVANLACSISNNEEGVKLVRMSASQLEALCPQVINAALALAAKPQSKLAQENMDLFKEQWEKQVRVLTDAVDDITSIDDFLAVSENHILEDVNKCVIALQEKDVDGLDRTAGAIRGRAARVIHVVTSEMDNYEPGVYTEKVLEATKLLSNTVMPRFTEQVEAAVEALSSDPAQPMDENEFIDASRLVYDGIRDIRKAVLMIRTPEELDDSDFETEDFDVRSRTSVQTEDDQLIAGQSARAIMAQLPQEQKAKIAEQVASFQEEKSKLDAEVSKWDDSGNDIIVLAKQMCMIMMEMTDFTRGKGPLKNTSDVISAAKKIAEAGSRMDKLGRTIADHCPDSACKQDLLAYLQRIALYCHQLNICSKVKAEVQNLGGELVVSGVDSAMSLIQAAKNLMNAVVQTVKASYVASTKYQKSQGMASLNLPAVSWKMKAPEKKPLVKREKQDETQTKIKRASQKKHVNPVQAASEAKAMDSI
B2: wild-type Flag-CTNNA1 (in MCF10A cells), P35221 Y419A; V422A (protein)
chain: B1 chain with A897L, A900F
B3: wild-type Flag-CTNNA1 (in MCF10A cells), P35221 L897A; F900A (protein)
chain: B1 chain with A419Y, A422V

target: endogenous LC3 (MCF10A cells), Q9GZQ8; assay: co-immunoprecipitation (Flag-Trap), immunoblot; details: chain shown with the change; BafA1-treated MCF10A cells; parent: 1.0

| ratio to parent | Binder |
| --- | --- |
| 0.29 | B1 |
| 0.23 | B2 |
| 0.22 | B3 |
